Assay results: patent US20240301052A1 (LANOVA MEDICINES DEVELOPMENT, published 2024)
Substitutions are numbered along the chain they refer to.

T1: human SLC34A2 (human, UniProt O95436 1-690)
T1 construct: whole, on cells; also called human solute carrier 34 A2; NaPi2b
T1 sequence (looked up): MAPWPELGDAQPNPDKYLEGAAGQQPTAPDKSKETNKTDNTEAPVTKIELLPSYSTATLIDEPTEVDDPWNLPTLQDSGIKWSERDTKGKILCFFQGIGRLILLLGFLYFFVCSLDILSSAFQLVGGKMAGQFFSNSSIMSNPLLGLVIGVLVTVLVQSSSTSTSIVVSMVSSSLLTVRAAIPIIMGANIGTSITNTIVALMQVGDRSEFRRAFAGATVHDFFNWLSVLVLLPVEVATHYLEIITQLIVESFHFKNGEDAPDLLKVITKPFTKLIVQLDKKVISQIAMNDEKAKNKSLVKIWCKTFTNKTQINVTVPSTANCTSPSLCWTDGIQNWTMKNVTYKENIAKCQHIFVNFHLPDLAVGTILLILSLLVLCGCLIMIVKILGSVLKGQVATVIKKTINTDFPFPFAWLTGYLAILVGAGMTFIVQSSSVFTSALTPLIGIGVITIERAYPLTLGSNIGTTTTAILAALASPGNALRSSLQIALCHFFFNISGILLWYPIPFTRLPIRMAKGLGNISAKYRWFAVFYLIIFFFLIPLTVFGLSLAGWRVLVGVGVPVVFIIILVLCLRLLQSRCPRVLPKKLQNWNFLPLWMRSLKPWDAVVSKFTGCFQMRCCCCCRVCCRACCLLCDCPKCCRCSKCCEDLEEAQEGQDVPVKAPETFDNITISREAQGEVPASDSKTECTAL

T2: mouse SLC34A2 (mouse, UniProt Q9DBP0 1-697)
T2 construct: whole, on cells
T2 sequence (looked up): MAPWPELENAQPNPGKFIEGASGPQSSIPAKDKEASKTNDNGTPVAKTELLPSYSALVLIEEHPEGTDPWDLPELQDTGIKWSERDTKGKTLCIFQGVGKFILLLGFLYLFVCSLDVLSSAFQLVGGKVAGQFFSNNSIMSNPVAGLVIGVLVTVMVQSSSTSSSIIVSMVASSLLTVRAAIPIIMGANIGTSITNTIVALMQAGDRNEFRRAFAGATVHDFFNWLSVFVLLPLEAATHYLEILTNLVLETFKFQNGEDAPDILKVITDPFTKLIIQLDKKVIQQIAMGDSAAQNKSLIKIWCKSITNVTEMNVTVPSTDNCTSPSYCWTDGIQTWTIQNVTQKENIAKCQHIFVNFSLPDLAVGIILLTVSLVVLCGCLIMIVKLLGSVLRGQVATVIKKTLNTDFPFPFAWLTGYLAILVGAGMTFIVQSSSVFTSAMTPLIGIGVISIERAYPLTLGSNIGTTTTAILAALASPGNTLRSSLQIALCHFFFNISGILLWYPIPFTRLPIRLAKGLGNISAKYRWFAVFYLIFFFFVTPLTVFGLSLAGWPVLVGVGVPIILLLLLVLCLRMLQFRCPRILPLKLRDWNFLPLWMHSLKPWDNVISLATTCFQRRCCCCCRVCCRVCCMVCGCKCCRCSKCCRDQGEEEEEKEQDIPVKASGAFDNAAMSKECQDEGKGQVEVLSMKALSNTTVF

T3: Cynomolgus SLC34A2 (Cynomolgus, UniProt A0A2K5UHY1 1-690)
T3 construct: whole, on cells; also called Cyno SLC34A2
T3 sequence: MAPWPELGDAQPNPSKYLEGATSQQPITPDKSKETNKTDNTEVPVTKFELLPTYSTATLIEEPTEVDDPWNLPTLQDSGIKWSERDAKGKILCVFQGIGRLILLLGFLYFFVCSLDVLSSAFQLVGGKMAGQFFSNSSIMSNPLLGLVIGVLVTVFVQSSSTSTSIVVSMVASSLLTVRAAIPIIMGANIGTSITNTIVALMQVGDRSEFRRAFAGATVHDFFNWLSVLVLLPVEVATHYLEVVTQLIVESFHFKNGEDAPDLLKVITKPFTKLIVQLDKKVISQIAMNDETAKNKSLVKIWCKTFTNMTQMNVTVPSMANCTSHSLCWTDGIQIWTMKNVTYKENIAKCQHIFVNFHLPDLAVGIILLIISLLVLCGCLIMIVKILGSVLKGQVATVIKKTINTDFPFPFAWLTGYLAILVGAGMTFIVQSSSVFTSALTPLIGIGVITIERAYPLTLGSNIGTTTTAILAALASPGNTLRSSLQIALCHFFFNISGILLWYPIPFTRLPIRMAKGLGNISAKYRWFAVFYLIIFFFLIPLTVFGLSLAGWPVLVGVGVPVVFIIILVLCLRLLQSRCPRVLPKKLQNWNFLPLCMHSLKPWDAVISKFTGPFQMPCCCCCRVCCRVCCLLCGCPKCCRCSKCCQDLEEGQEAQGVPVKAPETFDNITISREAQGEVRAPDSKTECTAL

B1: 62G10E4G8.p3.z15 hIgG1 (antibody, V domains shown)
VH: QVQLVQSGAEVVKPGASVKMSCKASGYTFPSYITHWVKQAPGQGLEWIGAIYPGNADTSYIQKFKGRATLTADKSTSTAYMELSSLRSEDTAVYYCARGTYGTSAWFTYWGQGTLVTVSS
VL: EIVLTQSPATLSVSPGERATLSCRARQNIGNNLYWYQQKPGQSPRLLIKYASQSISGIPSRFSGSGSGTDFTLTISSLQSEDFAVYFCQQSFSWPLTFGQGTKLEIK
notes: humanized hIgG1
B2: xi63A11D5B4 hIgG1 (antibody, V domains shown)
VH: QVQLQQPGAELVKPGASVKMSCRTSGYTFITYNMHWVKQTPGQGREWIGAIYPGNGDTSYNQKFKGKATLTADKSSSTAYMQLNSLTSEDSAVYYCSISTIITTGAVDYWGQGTSVTVAS
VL: DIVMTQSHKFMSTSVGDRVSITCKASQDVGTAVAWYQQKAGQSPKLLIYWTSTRHTGVPDRFTGSGSGTDFTLIIRSLQSEDLADYFCQQYSRIPLTFGSGTKLEIK
notes: chimeric, hIgG1
B3: 63A11D5B4.p1.z9 hIgG1 (antibody, V domains shown)
VH: QVQLVQSGAEVVKPGASVKMSCKTSGYTFITYNMHWVRQAPGQGLEWIGAIYPGSGDTSYNQKFKGRVTLTADKSTSTAYMELSSLRSEDTAVYYCSISTIITTGAVDYWGQGTLVTVSS
VL: DIQMTQSPSSLSASVGDRVTITCKASQDVGTAVAWYQQKPGKVPKLLIYWTSTRHTGVPSRFSGSGSGTDFTLTISSLQPEDVATYYCQQYSRIPLTFGGGTKVEIK
notes: humanized hIgG1
B4: xi91C9F1 hIgG1 (antibody, V domains shown)
VH: EVQLQQSGPELVKPGTSVKISCKTSGFFFTEYIIHWVKQSHGRSLEWIGGIIPNNGVTNYKQNFRGKAALTADKSSNTAYMELRSLTSEDSAVYYCARWRNGYYSAMDSWGQGTSVTVSS
VL: DIVVTQSHKFMSTSLGDRVSITCTASQDVGTAVAWYQQKPGHSPKLLIYWASTRHTGVPERFTGSGSGTDFTLTITNVQSEDLADYFCQQYRTSPLTFGVGTKLELK
notes: chimeric, hIgG1
B5: 91C9F1.p1.z7 hIgG1 (antibody, V domains shown)
VH: QVQLVQSGAEVKKPGSSVKVSCKTSGFFFTEYIIHWVRQAPGQGLEWIGGIIPNNDVTNYKQNFRGRVTLTADKSTSTAYMELSSLRSEDTAVYYCARWRNAYYSAMDSWGQGTTVTVSS
VL: DIQVTQSPSSLSTSVGDRVTITCTASQDVGTAVAWYQQKPGKSPKLLIYWASTRHTGVPERFTGSGSGTDFTLTISSVQPEDVATYFCQQYRTSPLTFGVGTKVEIK
notes: humanized hIgG1
B6: 30H9B8F9.p1.z5 hIgG1 (antibody, V domains shown)
VH: QVQLVQSGAEVKKPGASVKVSCKTSGYTFTTNNMHWVRQAPGQGLEWIGAIYPGSGATAYNQKFKGRVTMTADTSTSTVYMELSSLRSEDTAVYYCARGMYGHGAMDYWGQGTLVTVSS
VL: DIQLTQSPSFLSASVGDRVTITCKASQDVGTAVAWYQQKPGKAPKLLIYWATTRHSGVPSRFSGSGSGTEFTLTISSLQPEDFATYYCQQYSSNPLTFGQGTKLEIK
notes: humanized hIgG1
B7: xi30H9B8F9 hIgG1 (antibody, V domains shown)
VH: QVQLQQPGAELVKPGASVKMSCKTSGYTFTTNNMHWVKQTPGQGLEWIGAIYPGNGATAYNQKFKGKATLTADKSSSTAYMQLSSLTSEASAVYYCARGMYGHGAMDYWGQGTSVIVSS
VL: DIVMTQSHKFMSRSVGDRVRITCKASQDVGTAVAWYQQKPGQSPKLLIYWATTRHSGVPDRFTGSGSGTDFIFTISNVQSEDLADYFCQQYSSNPLTFGAGTKLELK
notes: chimeric, hIgG1
B8: xi62G10E4G8 hIgG1 (antibody, V domains shown)
VH: B1 VH with V5Q, A40T, A56G, R67K, T76S, E82Q, R87T, T91S, S120A
VL: DIVLTQSPATLSVTPGDSVSLSCRARQNIGNNLYWYQQKSHESPRLLIKYASQSISGIPSRFSGSGSGTDFTLTINSVETEDFGVYFCQQSFSWPLTFGAGTKLELK
notes: chimeric, hIgG1

Assays:
human SLC34A2 [1] = molecular target: T1, human SLC34A2; assay: FACS, OVCAR3 cells
Experimental: The binding of these humanized antibodies to OVCAR3 cells was evaluated as described above, and the results are shown in FIG. 12A-D and Tables 16A-D.

human SLC34A2 [2] = molecular target: T1, human SLC34A2; assay: FACS, OVCAR3 cells; remark: listed apart in the source
mouse SLC34A2 = molecular target: T2, mouse SLC34A2; assay: FACS, HEK293/Mouse SLC34A2 cells
human SLC34A2 [3] = molecular target: T1, human SLC34A2; assay: FACS, RMG-1 cells
Summary of the method: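 Flow-cytometric binding of chimeric antibodies (8-point, 4-fold dilutions from 200 nM) to RMG-1 cells, 60 min at 4° C, followed by fluorescent secondary antibody for 30 min at 4° C.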

human SLC34A2 [4] = molecular target: T1, human SLC34A2; assay: FACS, OVCAR3 cells; remark: listed apart in the source
Summary of the method: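 Flow cytometry binding: cells (OVCAR3, or HEK293 transfected with human SLC34A2) exposed 60 min at 4° C to chimeric hIgG1, 8-point 4-fold series starting 200 nM. Washed, stained 30 min at 4° C with fluorescent anti-human secondary, then analysed.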

human SLC34A2 [5] = molecular target: T1, human SLC34A2; assay: cell-based or functional assay
Cynomolgus SLC34A2 = molecular target: T3, Cynomolgus SLC34A2; assay: FACS, cells expressing Cynomolgus SLC34A2

Binder | EC50 (human SLC34A2 [1]) [nM] | Top (MFI) (human SLC34A2 [1]) | EC50 (human SLC34A2 [2]) [nM] | EC50 (mouse SLC34A2) [nM] | EC50 (human SLC34A2 [3]) [nM] | Top (MFI) (human SLC34A2 [3]) | EC50 (human SLC34A2 [4]) [nM] | Top (MFI) (human SLC34A2 [4]) | cytotoxicity EC50 (human SLC34A2 [5]) [nM] | cytotoxicity Inhibition % (human SLC34A2 [5]) [%] | EC50 (Cynomolgus SLC34A2) [nM] | Top (MFI) (Cynomolgus SLC34A2)
B1 | 3.76 | 27300 | 3.8 | 5.74 |  |  |  |  |  |  |  | 
B2 |  |  |  |  | 5.32 | 9770 | 3.85 | 43000 | 0.66 | 99 | 5.33 | 3510
B3 |  |  | 9.1 | 5.38 |  |  |  |  |  |  |  | 
B4 |  |  |  |  | 1.3 | 9230 | 1.64 | 26400 | 0.8 | 97.4 | 9.11 | 2430
B5 |  |  | 2.4 | 3.34 |  |  |  |  |  |  |  | 
B6 | 1.43 | 26900 | 0.9 | 2.06 |  |  |  |  |  |  |  | 
B7 | 1.19 | 29300 |  |  | 0.99 | 9470 | 0.53 | 41900 | 0.84 | 91.7 | 1.08 | 4080
B8 | 3.73 | 27600 |  |  | 3.65 | 9370 | 2.55 | 43000 | 0.42 | 97.2 | 3.33 | 4020
